From patent US11655301B2, “Carrier-binding agent compositions and methods of making and using the same” (Mayo Foundation for Medical Education and Research, priority 2016, dated 2023)

Key:
[1] = target: T1, CD20 (Homo sapiens, UniProt P11836); test: Blocking of fluorescent anti-human CD20 labeling of Daudi cells (flow cytometry); type: cell-based; settings: Daudi cells pretreated before CD20 labeling
T1 construct: endogenous in cells; host or cells: Daudi human B-cell lymphoma cells
T1 sequence (P11836 1-297): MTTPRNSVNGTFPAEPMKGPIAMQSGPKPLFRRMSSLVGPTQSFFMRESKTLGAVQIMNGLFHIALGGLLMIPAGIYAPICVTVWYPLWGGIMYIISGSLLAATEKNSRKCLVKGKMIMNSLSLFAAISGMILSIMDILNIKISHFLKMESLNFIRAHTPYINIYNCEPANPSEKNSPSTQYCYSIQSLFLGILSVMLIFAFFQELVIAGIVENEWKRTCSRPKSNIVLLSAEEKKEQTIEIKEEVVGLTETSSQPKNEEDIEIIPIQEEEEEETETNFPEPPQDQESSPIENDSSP
Text: CD20 positive Daudi lymphoma cells were labeled with fluorescent tagged anti-human CD20 or isotype matched control in panel F and A, respectively, and analyzed by flow cytometry.

[2] = system: Daudi human lymphoma cells; test: Daudi lymphoma xenotransplant in athymic nude mice; type: in vivo; settings: ABX 30 mg/kg, rituximab 12 mg/kg
Protocol: Tumor response was determined at day 7 post-treatment by the percent change in tumor size from the first day of treatment.
(§1) To test tumor efficacy, 1×10^6 A375 human melanoma cells were implanted into the right flank of athymic nude mice (Harlan Sprague Dawley, Indianapolis, Ind.). […] Tumor size was monitored 3 times/week and tumor volume was calculated with the following equation: (length×width^2)/2. Mice were sacrificed when the tumor size equaled 10% of the mouse body weight or about 2500 mm^3. The day 7 percent change from baseline was calculated as follows: [(tumor size on treatment day-tumor size on day 7)/tumor size on treatment day]×100.
On day 7 post treatment, tumors were measured and the percent change in tumor size from baseline was calculated.

[3] = target: T2, ABX (Homo sapiens, UniProt P02768); test: Bio-Layer Interferometry (BLItz) binding of antibody to ABX; settings: for binding affinity to ABX (in words): BLItz; for dependence of binding affinity to ABX on pH / temperature: pH 3, 5, 7, 9, BEV also RT, 37° C., 58° C.
T2 construct: purchased Celgene Corporation, Summit, N.J
Protocol: The association and dissociation constants were calculated using the BLItz software.

[4] = system: A375 human melanoma cells; test: A375 xenograft, BEV pretreatment follow up study; type: in vivo, athymic nude mice; settings: day 7 and day 10 post treatment; BEV 12 mg/kg, ABX 30 mg/kg
Text: Data is represented at day 7-post and day 10-post treatment as tumor volume in mm^3. FIGS. 11A-E track tumor size over 10 days. […] See also FIG. 11 F and FIG. 11 G.

[5] = system: A375 human melanoma cells; test: A375 human melanoma xenograft in athymic nude mice; type: in vivo; settings: BEV 12 mg/kg, ABX 30 mg/kg, tumors about 700 mm^3 at treatment
Protocol: In vivo experiments were performed at least 2 times. The number of mice required for those experiments was determined by power analysis. Mouse tumors were measured 2-3 times/week and mice were sacrificed when the tumor was 10% by weight. […] The end point of the mouse studies was median survival. Kaplan-Meier curves were generated and Mantle-Cox test was performed to determine significance of median survival between treatment groups. The in vitro results presented are representative of at least 5 repeated experiments. Statistical analyses of in vitro and in vivo percent change from baseline experiments were done using the Student's t-test.
as §1
The ABC complex was tested in the A375 melanoma xenotransplant model relative to each drug alone and AB160.
The effect of AB225 was assayed in animals as set forth above.

[6] = target: T2, ABX; test: Binding of cisplatin to ABX (free cisplatin in supernatant by HPLC); type: physicochemical; settings: ABX 5 mg/ml, cisplatin 0.5 mg/ml, room temperature, 30 minutes

Row | Molecule | blocking of CD20 binding of fluorescent anti-CD20 [1] | median survival [2] [days] | binding affinity to ABX (in words) [3] | dependence of binding affinity to ABX on pH / temperature [3] | average tumor volume [4] | median survival [5] [days] | cisplatin remaining in the supernatant [6] [%]
1 | rituximab | specifically blocked | 12 | picomolar range | decreased with higher pH |  |  | 
2 | bevacizumab |  |  | picomolar range | both pH- and temperature-dependent | not therapeutic | 14 | 
3 | N.N.[Cl][Pt][Cl] [cisplatin] |  |  |  |  |  |  | 40
